From US6413935

Target: HLA-DQ3.1 (DQA1*0301/DQB1*0310), purified from PF cells (human) (UniProt P01909)
Experiment: 125I-peptide inhibition, purified class II

## lambda rep 12-26 (peptide)
  IC50: > 10 µM
